Measurements taken from PMC5845890, “Pathophysiological Consequences of Neuronal α-Synuclein Overexpression: Impacts on Ion Homeostasis, Stress Signaling, Mitochondrial Integrity, and Electrical Activity” (Frontiers in Molecular Neuroscience, 2018).

Target: T1, Soluble domain (residues 1-209) of human Bcl-Xl (human, UniProt Q07817-1 1-209)
T1 construct: residues left at the N-terminus after thrombin cleavage of the 6XHis tag; Bcl-Xl, human, soluble domain, residues 1-209; 15N-labelled for the titration with peptides; BMRB 19521 (Follis et al., 2014) was used only for the chemical shift assignment; also called 15N-Bcl-Xl; source: BL21 E. coli (pET15b), purified (nickel-sepharose, thrombin digestion, reverse IMAC, size exclusion chromatography); …
Assay: NMR titration; 15N-Bcl-Xl with synthetic α-Syn (1-26) peptides; 1H-15N HSQC at 298 K; Hepes 25 mM pH 7.0, NaCl 50 mM, 10% D2O, 1 mM DTT; ΔδN against ligand concentration fitted by a single binding model; Kd averaged over residues 94, 120, 134 and 196 of Bcl-Xl
Conditions: both partners purified

T1 sequence (Q07817 other isoform, or with tags, fused parts or gaps): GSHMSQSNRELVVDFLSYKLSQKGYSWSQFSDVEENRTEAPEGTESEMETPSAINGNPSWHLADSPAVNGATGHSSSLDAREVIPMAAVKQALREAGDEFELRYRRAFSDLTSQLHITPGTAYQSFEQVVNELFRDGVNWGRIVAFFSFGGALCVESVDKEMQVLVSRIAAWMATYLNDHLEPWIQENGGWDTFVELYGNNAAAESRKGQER

B1: N-terminal acetylated alpha-synuclein peptide 1-26 (peptide)
peptide: not shown
modifications: acetyl group at the N-terminus
notes: α-Synuclein, human, residues 1-26; also called α-Syn (1-26) peptide with an acetyl group at the N-terminus; source: synthetic peptide (Fmoc solid-phase synthesis, reversed-phase HPLC)
Work on B1 yielded a Kd of 1950 ± 560 µM.
